Assay results taken from paper PMC10204415 (2023).

Assays:
[1] = biological target: T1, MBP-ARHGEF11 (mouse ARHGEF11 residues 1334–1406, except for deleted residues 1352–1394 by alternative … (mouse, UniProt Q68FM7 1334-1406, deleted residues 1352–1394 by alternative splicing)); assay: replicate 3; without BSA blocking
[2] = biological target: T1, MBP-ARHGEF11 (mouse ARHGEF11 residues …); assay: replicate 3; GSA-immobilized MBP-ARHGEF11, CDNB assay
[3] = biological target: T1, MBP-ARHGEF11 (mouse ARHGEF11 residues …); assay: replicate 2; GSA-immobilized MBP-ARHGEF11, CDNB assay
[4] = biological target: T1, MBP-ARHGEF11 (mouse ARHGEF11 residues …); assay: replicate 1; without BSA blocking
[5] = biological target: T1, MBP-ARHGEF11 (mouse ARHGEF11 residues …); assay: replicate 2; without BSA blocking
[6] = biological target: T1, MBP-ARHGEF11 (mouse ARHGEF11 residues …); assay: replicate 1; GSA-immobilized MBP-ARHGEF11, CDNB assay

T1 sequence (Q68FM7 entry or part of it deleted residues 1352–1394 by alternative splicing): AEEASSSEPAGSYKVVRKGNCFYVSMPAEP

B1: GST-ZO1-ZU5 (mouse ZO-1 ZU5 domain, residues 1624–1745) (domain or fragment)
chain: EDGHTVVATARGIFNSNGGVLSSIETGVSIIIPQGAIPEGIEQEIYFKVCRDNSILPPLDKEKGETLLSPLVMCGPHGLKFLKPVELRLPHCDPKTWQNKCLPGDPNYLVGANCVSVLIDHF
[1]
  Kd: 14.7 µM
[2]
  Kd: 56 µM
[3]
  Kd: 28 µM
[4]
  Kd: 8.7 µM
[5]
  Kd: 10.9 µM
[6]
  Kd: 37.3 µM
